B1: KCNA3 (parent)
chain: YQSGGRIRRPVNVPIDIFSEEIRF
B2: TSN (parent)
chain: AFVVYLETETLVTREAVTEILGIE

Variants of: B1
Assay: protein stability index of a GFP-peptide fusion (GPS, HEK-293T) (PSI 1-6); higher = more stable
Details: c terminus: a fixed tail appended
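Also: lentivirally expressed fusions sorted by FACS into six bins by GFP to DsRed ratio, PSI derived from sequencing read proportions per bin multiplied by bin number.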

Protein stability index: each site, then its substitutions
I22: L 2.06; S 2.29; N 2.82; K 2.31; H 2.71; V 3.48; P 1.98; R 2.68; T 2.2; M 2.29; Q 2.86; Y 1.8
R23: P 1.97; F 1.53; N 1.77; E 2.19; D 3; A 2.29; V 1.68; L 1.28; Q 1.72; K 2.3; T 1.62; C 1.23; M 1.67; H 2.37; W 1.05
F24: L 2.37; G 1.62; P 2.26; V 2.42; C 2.32; I 2.47; D 2.1; R 2.38; H 2.4; W 1.66; N 3.24; A 2.53; K 1.94; S 2.4; T 2.52; M 2.52; Q 2.31

Variants of: B2
Assay: as above
Details: c terminus: a fixed tail appended

Protein stability index, by site and new letter:
T10: D 2.79; A 1.65; M 1.36; P 2.45; K 3.37; E 1.39; V 2.5; S 2.76; L 2.29; Q 1.68; Y 2.36; F 3.32; R 2.22; C 2.82; H 2.83
E19: C 3.83; K 3.64; R 3.43; F 2.17; V 3.19; P 2.44; S 1.96; N 3.7; I 2.11; W 2.4; Q 3.48; H 2.31; L 3.65
E7: T 2.4; D 3.68; W 3.69; I 3.57; A 3.23; C 1.79; L 2.42; Y 2.77; K 2.63; N 3.66; S 1.76; H 3.41; P 2.19; G 2.77; Q 3.51
I20: Q 5.44; P 1.67; A 2.66; D 1.6; N 1.98; K 2.91; H 2.68; F 3.74; L 4.11; E 1.28; R 3.48; M 3.81; Y 1.56; W 2.75
E9: A 2.65; G 3.65; S 2.9; D 3.4; N 3.46; C 2.38; I 2.44; W 3.68; M 2.42; R 1.65; L 1.46
V4: Y 2.61; W 2.92; P 2.66; L 2.21; E 2.07; R 1.45; C 2.2; D 2.41; Q 1.36; T 1.13; K 1.56; A 2.54; N 2.09; H 2.19; S 1.57; G 2.53
V17: G 2.21; M 4.75; D 2.61; H 2.62; Q 3.14; A 2.01; Y 3.6; P 3.55; T 3.01; E 1.4
F2: H 1.48; D 3.68; S 2.36; V 1; N 2.45; I 2.72; Y 2.83; W 1.84; P 3.41; R 1.72; E 2.49; T 2.74; K 1.78; L 2.25; G 1.88; A 1.97; M 2.88; Q 1.86
T18: H 4.07; N 4.21; E 3.46; P 2.79; Q 3.84; A 2.74; G 1.49; F 2.48; L 2.24
T13: V 2.31; I 1.31; H 2.05; A 2.44; D 1.81; C 2.48; R 3.01; N 1.72; K 1.63; G 2.1; W 1.62; F 3.68; E 1.06; M 3.48; Y 3.33
A1: N 3.19; L 3.38; S 2.71; D 1.74; K 2.54; M 2.61; G 3.71; F 3.77; P 2.44; Q 2.11; C 2.64; W 2.42; T 2.55; I 3.49; R 4.12; H 2.54; E 3.39
A16: Y 2.47; Q 2.67; P 3.89; M 2.01; N 1.96; E 2.77; S 3.05; T 2.66; W 3.37; C 3.53; F 3.01; V 3.75; D 1.97
R14: S 1.54; H 3.6; K 4.19; M 4.2; T 2.48; F 2.36; C 3.25; D 2.33; N 4.51; A 3.41; E 1.43; P 2.84; Y 2.01
V3: K 1.81; F 1.99; E 1.9; D 2.37; H 2.3; L 2.35; M 1.97; P 2.89; Q 2.75; N 2.37; A 2.32; R 1.34; G 1.67; S 1.15; T 3.95; Y 2.86
E15: I 3.25; D 3.69; V 3.11; C 1.97; L 2.17; S 2.65; H 1.85; Y 2.25; M 3.51; F 3.13
L6: G 1.77; P 1.85; H 1.37; K 2.03; S 1.83; I 3.08; Q 1.84; E 2.25; R 1.24; F 3.12; C 2.38; Y 2.2; V 4.67; T 2.05; N 2.69; A 1.34; D 2
T8: K 2.53; S 2.93; D 1.94; Q 2.06; V 2.41; C 2.57; E 1.4; H 3.17; I 2.34; R 4.36; Y 1.7; G 2.1; A 2.27; N 3.62
L21: V 3.75; S 2.04; C 2.36; N 2.64; G 2.44; P 2.34; A 3.48; E 1.97; I 2.57
Y5: V 3.44; C 2.94; P 2.87; S 1.77; I 4.04; H 1.59; R 2.97; G 2.5; L 2.45; E 2.73; Q 1.91; N 2.13; D 2.68; T 3.32; F 1.99; A 2; K 1.14
V12: G 2.73; I 3.19; E 2.35; N 2.9; D 4.41; H 2.21; L 2.56; T 4.69; Q 1.94; Y 2.53; P 1.74; M 3.5; A 3.16; R 2.51
L11: W 2.15; E 1.73; G 2.58; R 2.65; T 1.64; V 2.74; N 2.14; D 2.34; M 3.03; Q 3.4; H 3.08; A 2.69; P 1.97; S 2.48
